Reference: patent US20220089772A1 (published 2022)

How the values were obtained:
[1] = molecular target: T1, Cynomolgus glycopeptide (biotinylated) (biotinylated; glycosylated (glycan and sites not stated)); experiment: SPR; avid; apparent KD, FIG. 19B
T1 peptide: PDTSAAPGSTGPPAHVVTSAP

[2] = molecular target: T2, Human glycopeptide (biotinylated) (biotinylated; glycosylated (glycan and sites not stated)); experiment: SPR; avid; apparent KD, FIG. 19A
T2 peptide: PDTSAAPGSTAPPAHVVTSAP

B1: monoclonal antibody GO2 (5F7) (antibody, V domains shown)
VH: QVQLQQSDAELVKPGASVKISCKASGYTFTDHAIHWVKQRPEQGLEWIGYFSPGNDDIHYNEKFEGKATLTADKSSSTAYMQLNSLTSEDSAVYFCKRSYDKDFDCWGQGTTLTVSS
VL: DIVMSQSPSSLGVSVGEKVTMSCKSSQSLLYSTNQKNYLAWYQQKPGQSPKLLIYWVSNRKSGVPDRFTGSGSGTDFTLTISSVKAEDLAVYYCQQYYRYPLTFGAGTKLELK
Question: What does the source list for B1?
Answer: Kd [1]: 0.056 µM; Kd [2]: 0.253 µM
